Assay results taken from patent US8465945B2, “Method for production and use of mite group 1 proteins” (Merck Patent GmbH, priority 1999, dated 2013).

Tests used:
[1] = system: IgE from mite-allergic or normal human sera; experiment: ELISA, binding of IgE from human sera to coated Der f 1 proteins or mite extracts, detected with FcεR1α-biotin
[2] = system: IgE from mite-allergic dog sera; experiment: ELISA, binding of IgE from dog sera to coated Der f 1 proteins or mite extracts, detected with FcεR1α-biotin
Protocol: Native or recombinant Der f 1 proteins in 100 μl CBC buffer (50 mM sodium carbonate, pH 9.6) were coated onto wells (100 ng per well) of Immulon II microtiter plates (available from Dynex Technologies, Chantilly, Va.) by incubation at 4° C., covered, overnight. Excess fluid was removed and wells were blocked with 200 μl Assay Buffer (4% fetal calf serum (available from Summit Laboratories, Fort Collins, Colo.) in phosphate buffered saline (PBS, recipe in Sambrook, ibid.), plus 0.05% Tween-20 (available from Sigma, St. Louis, Mo.)) for one hour at room temperature. Plates were then washed for 4 cycles on an automatic plate washer (Ultrawash, available from Dynatech Laboratories) using PBS with 0.05% Tween-20. […] Control wells were treated identically except that no serum was added. Plates were then washed as described above. Biotinylated human IgE receptor alpha chain (FcεR1α-biotin) (100 μl of 1.3 ng/ml) prepared as described in U.S. Pat. No. 5,945,294, ibid., was added and incubated for one hour at room temperature. After this incubation, plates were washed as described above. Streptavidin-horseradish peroxidase conjugate (0.5 mg/ml, available from KPL Labs, Gaithersburg, Md.) was added at a 1:5000 dilution in Assay Buffer for one hour at room temperature, after which plates were washed as described above. TMB Peroxidase substrate system, 2 part (available from KPL Labs, #0-76-00), added at 100 μl per well, was used according to the manufacturer's directions. The color reaction was allowed to proceed until good color development was reached (about 10-15 min); then the reaction was stopped with 100 μl per well of 1 M phosphoric acid. Bound IgE was determined by measuring absorbance (Optical Density, or OD) at 450 nm (nanometers) using an ELISA plate reader (such as Spectramax”, Molecular Devices, Sunnyvale, Calif.). Background OD readings in the control wells were subtracted from all numbers. Results are reported in Tables 1, 2 and 3 as OD multiplied by 1000. OD numbers greater than 100 are considered to be positive for a reaction with IgE. P. pastoris-expressed proteins are denoted in the Tables as Pichia expressed proteins.

[3] = system: anti-Der f 1 MAb 6A8 (capture) and anti-Der f 1 MAb 4C1 (detection); experiment: Monoclonal Capture ELISA; format: binding
Protocol: Assays were carried out as follows. A microtiter plate as described in Example 5 was coated overnight at 4° C. with 100 ng/well of anti-Der f 1 protein monoclonal antibody 6A8, denoted herein as anti-Der f 1 MAb 6A8, provided by Dr. Martin Chapman. The plate was washed in the manner described above. The following proteins were then added to wells, having been diluted in Assay Buffer in a 2-fold dilution series, from 0.75 to 50 ng/well: Heska native Derf1, P. pastoris-expressed PDerf1303b, and E. coli-expressed PDerf1303c. After incubation for 1 hour at room temperature, plates were washed as described in Example 5. Then 100 μl per well of a 1:1000 dilution in Assay Buffer of biotinylated anti-Der f 1 monoclonal antibody 4C1, also denoted anti-Der f 1 MAb 4C1, provided by Dr. Martin Chapman, was added for 1 hour at room temperature. Plates were washed, streptavidin-HRP conjugate was added, and plates were developed as described in Example 5.

B1: PDerf1303c: Recombinant pro-form of Der f 1 (SEQ ID NO:35) expressed in E. coli from nDerf1909c, refolded from inclusion bodies (protein, listed as Dermatophagoides farinae)
chain: RPASIKTFEEFKKAFNKNYATVEEEEVARKNFLESLKYVEANKGAINHLSDLSLDEFKNRYLMSAEAFEQLKTQFDLNAETSACRINSVNVPSELDLRSLRTVTPIRMQGGCGSCWAFSGVAATESAYLAYRNTSLDLSEQELVDCASQHGCHGDTIPRGIEYIQQNGVVEERSYPYVAREQRCRRPNSQHYGISNYCQIYPPDVKQIREALTQTHTAIAVIIGIKDLRAFQHYDGRTIIQHDNGYQPNYHAVNIVGYGSTQGVDYWIVRNSWDTTWGDSGYGYFQAGNNLMMIEQYPYVVIM
[1]; Assay Number 1, serum human 1916
  OD, bound IgE: 18 OD multiplied by 1000
[1]; Assay Number 1, serum human3848
  OD, bound IgE: 2291 OD multiplied by 1000
[1]; Assay Number 1, serum human 3958
  OD, bound IgE: 147 OD multiplied by 1000
[1]; Assay Number 1, serum human 3960
  OD, bound IgE: 1442 OD multiplied by 1000
[1]; Assay Number 1, serum human 3961
  OD, bound IgE: 67 OD multiplied by 1000
[1]; Assay Number 1, serum human 3987
  OD, bound IgE: 1416 OD multiplied by 1000
[1]; Assay Number 1, serum human 4289
  OD, bound IgE: 29 OD multiplied by 1000
[1]; Assay Number 1, serum human 4467
  OD, bound IgE: 236 OD multiplied by 1000
[1]; Assay Number 1, serum human 5207
  OD, bound IgE: 1902 OD multiplied by 1000
[1]; Assay Number 1, serum human pool
  OD, bound IgE: 883 OD multiplied by 1000
[1]; Assay Number 2, serum Heska human B
  OD, bound IgE: 0 OD multiplied by 1000
[1]; Assay Number 2, serum Heska human C
  OD, bound IgE: 4 OD multiplied by 1000
[1]; Assay Number 2, serum Heska human D
  OD, bound IgE: 0 OD multiplied by 1000
[1]; Assay Number 2, serum Heska human E
  OD, bound IgE: 10 OD multiplied by 1000
[1]; Assay Number 2, serum Heska human F
  OD, bound IgE: 0 OD multiplied by 1000
[1]; Assay Number 2, serum Heska human G
  OD, bound IgE: 0 OD multiplied by 1000
[1]; Assay Number 2, serum Heska human H
  OD, bound IgE: 0 OD multiplied by 1000
[1]; Assay Number 2, serum Heska human I
  OD, bound IgE: 1 OD multiplied by 1000
[1]; Assay Number 2, serum Heska human J
  OD, bound IgE: 0 OD multiplied by 1000
[1]; Assay Number 2, serum Heska human K
  OD, bound IgE: 0 OD multiplied by 1000
[1]; Assay Number 2, serum Heska human L
  OD, bound IgE: 0 OD multiplied by 1000
[1]; Assay Number 2, serum Heska human M
  OD, bound IgE: 0 OD multiplied by 1000
[1]; Assay Number 2, serum Heska human N
  OD, bound IgE: 24 OD multiplied by 1000
[1]; Assay Number 2, serum Heska human O
  OD, bound IgE: 2 OD multiplied by 1000
[1]; Assay Number 2, serum Heska human P
  OD, bound IgE: 0 OD multiplied by 1000
[1]; Assay Number 2, serum Heska human Q
  OD, bound IgE: 0 OD multiplied by 1000
[1]; Assay Number 2, serum Heska human R
  OD, bound IgE: 0 OD multiplied by 1000
[1]; Assay Number 2, serum human 1916
  OD, bound IgE: 21 OD multiplied by 1000
[1]; Assay Number 2, serum human 3848
  OD, bound IgE: 2378 OD multiplied by 1000
[1]; Assay Number 2, serum human 3958
  OD, bound IgE: 247 OD multiplied by 1000
[1]; Assay Number 2, serum human 3960
  OD, bound IgE: 944 OD multiplied by 1000
[1]; Assay Number 2, serum human 3961
  OD, bound IgE: 46 OD multiplied by 1000
[1]; Assay Number 2, serum human 3987
  OD, bound IgE: 1477 OD multiplied by 1000
[1]; Assay Number 2, serum human 4289
  OD, bound IgE: 47 OD multiplied by 1000
[1]; Assay Number 2, serum human 4467
  OD, bound IgE: 277 OD multiplied by 1000
[1]; Assay Number 2, serum human 5207
  OD, bound IgE: 2122 OD multiplied by 1000
[1]; Assay Number 2, serum human pool
  OD, bound IgE: 1161 OD multiplied by 1000
[1]; Table 1, 9 human samples (8 sera and pool), OD numbers greater than 100 positive
  reactivity: share of human serum samples reactive to native Der f 1 proteins that are also reactive to the recombinant protein: 78%
[1]; Table 2, 10 human serum samples
  reactivity: share of human serum samples reactive to native Der f 1 proteins that are also reactive to the recombinant protein: 70%
[2]; Assay Number 1, serum dog pool
  OD, bound IgE: 615 OD multiplied by 1000
[2]; Assay Number 1, serum dog-1
  OD, bound IgE: 0 OD multiplied by 1000
[2]; Assay Number 1, serum dog-2
  OD, bound IgE: 258 OD multiplied by 1000
[2]; Assay Number 1, serum dog-3
  OD, bound IgE: 45 OD multiplied by 1000
[2]; Assay Number 2, dog sera pool A 146
  OD, bound IgE: 489 OD multiplied by 1000
[2]; Assay Number 2, dog sera pool KS338
  OD, bound IgE: 68 OD multiplied by 1000
[2]; Table 1
  dog serum samples bound, of those that bound to native Der f 1 proteins: 1 of 2
[3]; 0.75 ng protein per well
  OD, protein captured by MAb 6A8 and detected by MAb 4C1: 136 OD
[3]; 1.5 ng protein per well
  OD, protein captured by MAb 6A8 and detected by MAb 4C1: 268 OD
[3]; 2.5 ng protein per well
  OD, protein captured by MAb 6A8 and detected by MAb 4C1: 1372 OD
[3]; 3.1 ng protein per well
  OD, protein captured by MAb 6A8 and detected by MAb 4C1: 503 OD
[3]; 6.25 ng protein per well
  OD, protein captured by MAb 6A8 and detected by MAb 4C1: 890 OD
[3]; 25 ng protein per well
  OD, protein captured by MAb 6A8 and detected by MAb 4C1: 1770 OD
[3]; 50 ng protein per well
  OD, protein captured by MAb 6A8 and detected by MAb 4C1: 1983 OD

B2: PDerf1223b: Recombinant mature form of Der f 1 (SEQ ID NO:32) expressed by P. pastoris from nDerf1669b (protein, listed as Dermatophagoides farinae)
chain: TSACRINSVNVPSELDLRSLRTVTPIRMQGGCGSCWAFSGVAATESAYLAYRNTSLDLSEQELVDCASQHGCHGDTIPRGIEYIQQNGVVEERSYPYVAREQRCRRPNSQHYGISNYCQIYPPDVKQIREALTQTHTAIAVIIGIKDLRAFQHYDGRTIIQHDNGYQPNYHAVNIVGYGSTQGVDYWIVRNSWDTTWGDSGYGYFQAGNNLMMIEQYPYVVIM
[1]; Table 3, sera 429, PDerf1303b preparation number A166-26, PDerf1223b preparation 1000-7
  OD, bound IgE: 63 OD multiplied by 1000
[1]; Table 3, sera 1916, PDerf1303b preparation number A166-26, PDerf1223b preparation 1000-7
  OD, bound IgE: 0 OD multiplied by 1000
[1]; Table 3, sera 3848, PDerf1303b preparation number A166-26, PDerf1223b preparation 1000-7
  OD, bound IgE: 1253 OD multiplied by 1000
[1]; Table 3, sera 3958, PDerf1303b preparation number A166-26, PDerf1223b preparation 1000-7
  OD, bound IgE: 1224 OD multiplied by 1000
[1]; Table 3, sera 3960, PDerf1303b preparation number A166-26, PDerf1223b preparation 1000-7
  OD, bound IgE: 634 OD multiplied by 1000
[1]; Table 3, sera 3961, PDerf1303b preparation number A166-26, PDerf1223b preparation 1000-7
  OD, bound IgE: 301 OD multiplied by 1000
[1]; Table 3, sera 3987, PDerf1303b preparation number A166-26, PDerf1223b preparation 1000-7
  OD, bound IgE: 1078 OD multiplied by 1000
[1]; Table 3, sera 4467, PDerf1303b preparation number A166-26, PDerf1223b preparation 1000-7
  OD, bound IgE: 432 OD multiplied by 1000
[1]; Table 3, sera 5207, PDerf1303b preparation number A166-26, PDerf1223b preparation 1000-7
  OD, bound IgE: 1096 OD multiplied by 1000
[1]; Table 3, sera human pool, PDerf1303b preparation number A166-26, PDerf1223b preparation 1000-7
  OD, bound IgE: 774 OD multiplied by 1000
